The target of experiment [1] is HA33 (full-length, residues M1–P293), expressed alone (Clostridium botulinum strain 62A (BoNT/A1-producing)) (UniProt P0DPR0). The experiment in a line: AUC.
The target of experiment [2] is HA70 of BoNT/A (full-length, residues M1–N626) (Clostridium botulinum strain 62A (BoNT/A1-producing)). Nature of the experiment: AUC.
The target in experiment [3] is HA complex (HA70–HA17–HA33), recombinant, reconstituted in vitro (Clostridium botulinum strain 62A (BoNT/A1-producing)) (UniProt Q45871). The experiment in a line: […], pH 7.6 with 100 mM NaCl; […].
Experiment [4] addresses mini-HA complex (HA70^D3–HA17–HA33) (Clostridium botulinum strain 62A (BoNT/A1-producing)) (UniProt Q45871). The experiment in a line: […], pH 7.6 with 100 mM NaCl; […].

Here are results for four substances from paper PMC3795040.

As to “HA33 (full-length, residues M1–P293), expressed alone (from UniProt P0DPR0 1-286) (natural protein)”, in experiment [1], the stoichiometry N – broadly, the number of molecules, sites or subunits per partner or assembly – was 2.
Consider “HA70 of BoNT/A (full-length, residues M1–N626) (natural protein)”, for which the stoichiometry N (HA70 chains in the oligomer) in experiment [2] is 3.
Regarding “HA complex (HA70–HA17–HA33), recombinant, reconstituted in vitro (from UniProt Q45871 1-293)”, the Kd (in general, a measure of binding affinity in units of concentration) in experiment [3] worked out at 10.9 µM.
Regarding “mini-HA complex (HA70^D3–HA17–HA33) (from UniProt Q45871 1-293)”, the Kd in experiment [4] was found to be 23.1 µM.
